Laboratory results as given in paper PMC11218510, “Functional analysis of the methylerythritol phosphate pathway terminal enzymes IspG and IspH from Zymomonas mobilis” (Microbiology Spectrum, 2024).

Target: the molecule itself
Assay: native gel or EMSA; 4%-16% Bis-Tris Native gel; 50 μM IspG, 50 μM IspH and a mixture of 25 μM each

B1: Z. mobilis Strep-tag II IspG (enzyme, UniProt Q5NR50 1-377, looked up)
chain: MSIRPWRHIERRKSRKIMVGNVAVGGDAPISVQTMTNTPTVDAQATIAQIKRCEAVGVDLIRVSCPDKESTAALKDIVRAAEVPIIADIHFHYKRALEAADAGAACLRINPGNIGSSERVAEVVRAAKANGCAIRIGVNAGSLEKELLEKYGEPCPDALVESALNHIKLLQDQDFHEFKVAVKASDVFLAVASYKALAKAVDCPLHLGITEAGGLIGGTVKSALGIGNLLWDGIGDTLRVSLSADPEQEVRVGYDILKTLDLRTRGVRVVSCPSCARQGFDVVKTVKALEERLAHIATPISLSILGCVVNGPGEARETDIGVTGGGQGKHMVFLSGVTDHTVEDAKMLDHIVSLVEAKAAEIEAEKAKEKAATVAAE
notes: IspG of Zymomonas mobilis ZM4; coding region amplified from genomic DNA; carries a [4Fe-4S] cluster (occupancy 5-10%); also called Z. mobilis IspG; ispGZM; source: E. coli PK13681 (BL21 (DE3) derivative) with pPK13651 (pET11a), purified anaerobically (Streptrap HP, PD-10 desalting); not shown: Strep-tag II, C-terminal, kept
- stoichiometry N: 2
